The text below walks through data of patent US12618828B2, “Probe and method for detecting membrane-associated molecules in living cells” (priority 2021, dated 2026).

Holding throughout (format): cell-based
The target in one test is T1, GβGγ dimer (Homo sapiens, UniProt P59768+P62873).
T1 construct: expressed in transfected cells; host or cells: HEK293
Nature of the test: Polarization microscopy of probe in HEK293 cells, with or without cotransfected GβGγ dimer. As to conditions: cotransfection of plasmids encoding the, excitation polarization resolved single-photon confocal microscopy. How it is done:
(§1) Prior to microscopy observations, mammalian cells (HEK293) were cultured at 37° C. under an atmosphere of 95% air, 5% CO2, in Dulbecco's modified Eagle's medium with Glutamax I and high glucose (Life Technologies), supplemented with 10% fetal bovine serum. Cells were plated on 8-chamber microscopy slides (p-Slides, Ibidi GmbH, Germany). Transfections were carried out using 0.2 μg of plasmid DNA and Lipofectamine 2000 (Life Technologies), according to the protocol of the manufacturer. In cotransfections, 0.2 μg of each of the plasmids were used. Microscopy experiments were carried out 48 h after transfection. […]
(§2) In excitation polarization resolved single-photon laser scanning confocal microscopy, the cells (in the multi-well cover slip) were observed using a single-photon laser scanning confocal microscope Olympus FV1200, modified for excitation-polarization resolved microscopy. […] Fluorescence of wavelengths in the range of 510-610 nm was separated from the excitation light by a long-pass dichroic mirror (DM405/488, Olympus, Japan), diffractive grating, and an adjustable slit, and detected by a photomultiplier. […]
(§3) The resulting images were deconvolved and quantitatively analyzed by following published procedures (Bondar A & al., Communications Biology. 2021 Feb. 12; 4(1):1-2.) that rely on publicly available software tools. […]

The target in test [1] is T2, activated form of the G-protein Gαi1 (Gαi1(Q204L)) (Homo sapiens, UniProt P63096, Q204L).
T2 construct: expressed in transfected cells; host or cells: HEK293
The experiment in a line: Polarization microscopy of probe in HEK293 cells, with or without cotransfected constitutively activated Gαi1(Q204L). The note with it: cotransfection of Gαi1(Q204L) plasmid, excitation polarization resolved single-photon laser scanning confocal microscopy.
From the text: A protein (SEQ ID NO:5) that includes as an anchoring moiety a fragment of the protein h-Ras, a flexible peptide linker (amino acid sequence GSGGSGG (SEQ ID NO:1)), a monomeric enhanced green fluorescent protein (meGFP) as a fluorescent moiety, and an affinity binding peptide KB1753 known to bind the activated form of the G-protein Gαi1 (Johnston C A & al., Structure. 2005 Jul. 1; 13(7):1069-80), was encoded into a DNA sequence (SEQ ID NO:6) and cloned into a mammalian expression vector (pcDNA3.1(+)) under the control of the cytomegalovirus (CMV) promoter. The resulting DNA encoding the probe of invention was transfected into HEK293 cells either alone, or along with DNA encoding the target protein of the probe.
Prior to microscopy observations, mammalian cells (HEK293) were cultured at 37° C. under an atmosphere of 95% air, 5% CO2, in Dulbecco's modified Eagle's medium with Glutamax I and high glucose (Life Technologies), supplemented with 10% fetal bovine serum. […]
The cells were observed by excitation polarization resolved single-photon laser scanning confocal microscopy, by excitation polarization resolved two-photon laser scanning microscopy, by excitation polarization resolved single-photon wide-field fluorescence microscopy, and by fluorescence polarization resolved single-photon laser scanning confocal microscopy.
as §2, §3

The next test deals with T3, activated form of Gαi1 (Homo sapiens, UniProt P63096).
T3 construct: expressed in transfected cells; host or cells: HEK293
The experiment in a line: Polarization microscopy of probe in HEK293 cells, Gαi1 activated through the α2-adrenergic receptor by norepinephrine. As to conditions: HEK293 cells cotransfected with Gαi1, Gβ1, Gγ2 and α2-adrenergic receptor; 10 μM norepinephrine; excitation polarization resolved single-photon confocal microscopy. Here is the method: as §1, §2, §3

T2 sequence (P63096 whole entry Q204L): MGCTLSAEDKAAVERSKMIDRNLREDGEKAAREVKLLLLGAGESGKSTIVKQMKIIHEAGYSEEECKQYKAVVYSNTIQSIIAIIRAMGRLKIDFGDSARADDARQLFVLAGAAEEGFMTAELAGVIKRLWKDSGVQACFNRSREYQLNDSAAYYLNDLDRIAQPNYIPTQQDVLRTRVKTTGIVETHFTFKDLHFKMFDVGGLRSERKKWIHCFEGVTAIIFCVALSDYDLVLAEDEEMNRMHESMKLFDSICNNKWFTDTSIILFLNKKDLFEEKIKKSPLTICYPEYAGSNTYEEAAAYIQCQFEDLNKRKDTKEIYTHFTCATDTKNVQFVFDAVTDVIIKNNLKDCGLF
T3 sequence (P63096 whole entry): as the sequence (P63096 whole entry Q204L) above, with L204Q counted along it
T1 sequence (P62873 2-340 limits assumed): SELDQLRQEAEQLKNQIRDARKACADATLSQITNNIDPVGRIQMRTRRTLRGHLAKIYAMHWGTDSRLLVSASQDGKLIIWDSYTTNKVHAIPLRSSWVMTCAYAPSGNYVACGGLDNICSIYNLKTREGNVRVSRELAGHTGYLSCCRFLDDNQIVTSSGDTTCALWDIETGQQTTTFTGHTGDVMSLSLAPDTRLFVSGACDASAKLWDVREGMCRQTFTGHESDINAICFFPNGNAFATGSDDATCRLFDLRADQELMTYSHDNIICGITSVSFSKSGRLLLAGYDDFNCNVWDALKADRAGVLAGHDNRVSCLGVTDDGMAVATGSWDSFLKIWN
T1 sequence (P59768 2-68 limits assumed): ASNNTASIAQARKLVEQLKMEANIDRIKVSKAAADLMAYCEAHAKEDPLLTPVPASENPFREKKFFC

B1: GAP43-SSGSSGTG-HALO-GRK2ct (protein)
chain: MLCCMRRTKQVEKNDEDQNSSGSSGTGAEIGTGFPFDPHYVEVLGERMHYVDVGPRDGTPVLFLHGNPTSSYVWRNIIPHVAPTHRCIAPDLIGMGKSDKPDLGYFFDDHVRFMDAFIEALGLEEVVLVIHDWGSALGFHWAKRNPERVKGIAFMEFIRPIPTWDEWPEFARETFQAFRTTDVGRKLIIDQNVFIEGTLPMGVVRPLTEVEMDHYREPFLNPVDREPLWRFPNELPIAGEPANIVALVEEYMDWLHQSPVPKLLFWGTPGVLIPPAEAARLAKSLPNCKAVDIGPGLNLLQEDNPDLIGSEIARWLSTLEISGGSSRNFPLVISERWQQEVAETVYEAVNADTDKIEARKRAKNKQLGHEEDYALGRDCIVHGYMLKLGNPFLTQWQRRYFYLFPNRLEWRGEGESRQSLLTMEQIVSVEETQIKDKKCILLRIKGGKQFVLQCESDPEFVQWKKELTETFMEAQRLLRRAPKFLNKSRSAVVELSKPPLCHRNSNGLGSRG
modifications: HALO labelled with JF-549; GAP43-SSGSSGTG-HALO-GRK2ct
notes: Protein probe: GAP43 fragment anchor, SSGSSGTG linker, HALO (labelled with JF-549), GRK2 fragment with PH domain
Regarding B1, in the test with GβGγ dimer, the “linear dichroism of the fluorescent moiety of the probe in presence of its target molecule compared with absence” value is “statistically significantly higher”.

B2: KB1753-SNAP-GSGGSGG-hRas (protein)
chain: MSSRGYYHGIWVGEEGRLSRDKDCEMKRTTLDSPLGKLELSGCEQGLHRIIFLGKGTSAADAVEVPAPAAVLGGPEPLMQATAWLNAYFHQPEAIEEFPVPALHHPVFQQESFTRQVLWKLLKVVKFGEVISYSHLAALAGNPAATAAVKTALSGNPVPILIPCHRVVQGDLDVGGYEGGLAVKEWLLAHEGHRLGKPGLGSGGSGGCMSCKCVLS
modifications: SNAP labelled with SNAP Cell 430; KB1753-SNAP-GSGGSGG-hRas
notes: Protein probe: hRas fragment anchor, GSGGSGG linker, SNAP fluorogenic protein (labelled with SNAP Cell 430), peptide KB1753
On to B2, for which the “linear dichroism of the fluorescent moiety of the probe in presence of its target molecule compared with absence” value in test [1] was “statistically significantly higher”.

B3: KB1753-HALO-GSGGSGG-hRas (protein)
chain: MSSRGYYHGIWVGEEGRLSRAEIGTGFPFDPHYVEVLGERMHYVDVGPRDGTPVLFLHGNPTSSYVWRNIIPHVAPTHRCIAPDLIGMGKSDKPDLGYFFDDHVRFMDAFIEALGLEEVVLVIHDWGSALGFHWAKRNPERVKGIAFMEFIRPIPTWDEWPEFARETFQAFRTTDVGRKLIIDQNVFIEGTLPMGVVRPLTEVEMDHYREPFLNPVDREPLWRFPNELPIAGEPANIVALVEEYMDWLHQSPVPKLLFWGTPGVLIPPAEAARLAKSLPNCKAVDIGPGLNLLQEDNPDLIGSEIARWLSTLEISGGSGGSGGCMSCKCVLS
modifications: HALO labelled with JF-549; KB1753-HALO-GSGGSGG-hRas
notes: Protein probe: hRas fragment anchor, GSGGSGG linker, HALO fluorogenic protein (labelled with JF-549), peptide KB1753
Consider B3, for which the “linear dichroism of the fluorescent moiety of the probe in presence of activated Gαi1 compared with absence” value with activated form of Gαi1 is given as “statistically significantly lower”. For the same molecule, the “linear dichroism of the fluorescent moiety of the probe in presence of its target molecule compared with absence” value in test [1] was “statistically significantly lower”.

B4: KB1753-mScarlet-GSGGSGG-hRas (protein)
chain: MSSRGYYHGIWVGEEGRLSRVSKGEAVIKEFMRFKVHMEGSMNGHEFEIEGEGEGRPYEGTQTAKLKVTKGGPLPFSWDILSPQFMYGSRAFTKHPADIPDYYKQSFPEGFKWERVMNFEDGGAVTVTQDTSLEDGTLIYKVKLRGTNFPPDGPVMQKKTMGWEASTERLYPEDGVLKGDIKMALRLKDGGRYLADFKTTYKAKKPVQMPGAYNVDRKLDITSHNEDYTVVEQYERSEGRHSTGGMDELYKGSGGSGGCMSCKCVLS
modifications: KB1753-mScarlet-GSGGSGG-hRas
notes: Protein probe: hRas fragment anchor, GSGGSGG linker, mScarlet, peptide KB1753
Regarding B4, the “linear dichroism of the fluorescent moiety of the probe in presence of activated Gαi1 compared with absence” value with activated form of Gαi1 is “statistically significantly higher”. Moreover, the “linear dichroism of the fluorescent moiety of the probe in presence of its target molecule compared with absence” value in test [1] was “statistically significantly higher”.
